The numbers were not newly measured in article PMC3538140, which cites them from elsewhere.

The data set has as its target TRAIL-R1 (Homo sapiens) (UniProt O00220).
UniProt O00220, sequence (O00220 24-468): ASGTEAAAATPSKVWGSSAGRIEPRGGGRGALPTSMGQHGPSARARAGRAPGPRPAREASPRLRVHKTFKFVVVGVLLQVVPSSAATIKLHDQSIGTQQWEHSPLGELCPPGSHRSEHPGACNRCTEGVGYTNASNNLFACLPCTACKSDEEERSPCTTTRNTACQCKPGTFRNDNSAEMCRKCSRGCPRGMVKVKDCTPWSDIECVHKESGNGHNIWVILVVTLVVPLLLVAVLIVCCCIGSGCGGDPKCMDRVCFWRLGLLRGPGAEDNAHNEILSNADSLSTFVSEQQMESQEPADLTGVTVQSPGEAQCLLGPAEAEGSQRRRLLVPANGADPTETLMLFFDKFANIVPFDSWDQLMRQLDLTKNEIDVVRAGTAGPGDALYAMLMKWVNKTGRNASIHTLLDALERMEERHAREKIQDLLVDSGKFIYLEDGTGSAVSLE

Turning to TRAIL (from UniProt P50591), the Kd is 70 nM.
